# Molecular target: SNX27, Q96L92
# Experiment: holdup assay
# Set-up: key: below the threshold = too weak to quantify, mostly under pKd 3.1 to 4
# Conditions: plain residues with an end cap or a label only (N-terminal biotin on a linker: ado-ado)
row,Binder,pKd
1,"AAVENKVTDL [PLXNB1, O43157]",4.12
2,"PYPTADHMLA [JUP, P14923]",below the threshold

# Molecular target: T1, NHERF3_3, Q5T2W1
# T1 sequence (Q5T2W1 238-333, limits assumed, looked up): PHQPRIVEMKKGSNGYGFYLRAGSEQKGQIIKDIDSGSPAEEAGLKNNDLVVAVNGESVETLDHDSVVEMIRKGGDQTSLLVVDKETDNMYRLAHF
# Experiment: holdup assay
# Set-up: key: below the threshold = too weak to quantify, mostly under pKd 3.1 to 4
# Conditions: plain residues with an end cap or a label only (N-terminal biotin on a linker: ado-ado)
row,Binder,pKd
1,"AAVENKVTDL [PLXNB1, O43157]",below the threshold
2,"PYPTADHMLA [JUP, P14923]",below the threshold

# Molecular target: NHERF4_4, Q86UT5
# Experiment: holdup assay
# Set-up: key: below the threshold = too weak to quantify, mostly under pKd 3.1 to 4
# Conditions: plain residues with an end cap or a label only (N-terminal biotin on a linker: ado-ado)
# Sequence of NHERF4_4, Q86UT5 (Q86UT5 464-550): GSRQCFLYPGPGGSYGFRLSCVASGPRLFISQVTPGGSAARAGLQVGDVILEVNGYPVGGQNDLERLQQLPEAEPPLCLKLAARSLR
row,Binder,pKd
1,"AAVENKVTDL [PLXNB1, O43157]",below the threshold
2,"PYPTADHMLA [JUP, P14923]",below the threshold

# Molecular target: T2, SNTG2, Q9NY99
# T2 sequence (Q9NY99 68-166, limits assumed, looked up): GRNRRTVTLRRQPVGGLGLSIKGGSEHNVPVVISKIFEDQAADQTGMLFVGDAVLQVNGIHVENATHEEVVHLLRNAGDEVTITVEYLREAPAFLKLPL
# Experiment: holdup assay
# Set-up: key: below the threshold = too weak to quantify, mostly under pKd 3.1 to 4
# Conditions: plain residues with an end cap or a label only (N-terminal biotin on a linker: ado-ado)
row,Binder,pKd
1,"AAVENKVTDL [PLXNB1, O43157]",3.98
2,"PYPTADHMLA [JUP, P14923]",below the threshold

# Molecular target: NHERF4_2, Q86UT5
# Experiment: holdup assay
# Set-up: key: below the threshold = too weak to quantify, mostly under pKd 3.1 to 4
# Conditions: plain residues with an end cap or a label only (N-terminal biotin on a linker: ado-ado)
# Sequence of NHERF4_2, Q86UT5 (Q86UT5 220-308): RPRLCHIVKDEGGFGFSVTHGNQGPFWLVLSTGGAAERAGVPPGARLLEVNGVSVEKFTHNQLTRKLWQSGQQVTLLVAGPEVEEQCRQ
row,Binder,pKd
1,"AAVENKVTDL [PLXNB1, O43157]",below the threshold
2,"PYPTADHMLA [JUP, P14923]",below the threshold

# Molecular target: DLG1_3, Q12959
# Experiment: holdup assay
# Set-up: key: below the threshold = too weak to quantify, mostly under pKd 3.1 to 4
# Conditions: plain residues with an end cap or a label only (N-terminal biotin on a linker: ado-ado)
# Sequence of DLG1_3, Q12959 (Q12959 457-571): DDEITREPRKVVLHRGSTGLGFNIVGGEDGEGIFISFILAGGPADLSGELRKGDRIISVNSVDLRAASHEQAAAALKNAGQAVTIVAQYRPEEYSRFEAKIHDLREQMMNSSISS
row,Binder,pKd
1,"AAVENKVTDL [PLXNB1, O43157]",below the threshold
2,"PYPTADHMLA [JUP, P14923]",below the threshold

# Molecular target: Inadl_3, Q8NI35
# Experiment: holdup assay
# Set-up: key: below the threshold = too weak to quantify, mostly under pKd 3.1 to 4
# Conditions: plain residues with an end cap or a label only (N-terminal biotin on a linker: ado-ado)
# Sequence of Inadl_3, Q8NI35 (Q8NI35 359-469): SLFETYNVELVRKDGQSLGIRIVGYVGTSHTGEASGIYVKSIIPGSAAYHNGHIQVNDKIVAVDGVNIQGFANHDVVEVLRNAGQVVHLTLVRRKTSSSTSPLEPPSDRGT
row,Binder,pKd
1,"AAVENKVTDL [PLXNB1, O43157]",below the threshold
2,"PYPTADHMLA [JUP, P14923]",below the threshold

# Molecular target: AHNAK1, Q09666
# Experiment: holdup assay
# Set-up: key: below the threshold = too weak to quantify, mostly under pKd 3.1 to 4
# Conditions: plain residues with an end cap or a label only (N-terminal biotin on a linker: ado-ado)
# Sequence of AHNAK1, Q09666 (Q09666 4-100): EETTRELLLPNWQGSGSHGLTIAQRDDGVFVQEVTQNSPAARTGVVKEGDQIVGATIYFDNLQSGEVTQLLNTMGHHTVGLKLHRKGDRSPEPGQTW
row,Binder,pKd
1,"AAVENKVTDL [PLXNB1, O43157]",below the threshold
2,"PYPTADHMLA [JUP, P14923]",below the threshold

# Molecular target: T3, DFNB31_1, Q9P202
# T3 sequence (Q9P202 135-233, limits assumed, looked up): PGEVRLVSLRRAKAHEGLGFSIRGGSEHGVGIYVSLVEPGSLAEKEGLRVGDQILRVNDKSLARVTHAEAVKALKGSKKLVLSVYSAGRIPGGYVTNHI
# Experiment: holdup assay
# Set-up: key: below the threshold = too weak to quantify, mostly under pKd 3.1 to 4
# Conditions: plain residues with an end cap or a label only (N-terminal biotin on a linker: ado-ado)
row,Binder,pKd
1,"AAVENKVTDL [PLXNB1, O43157]",3.47
2,"PYPTADHMLA [JUP, P14923]",below the threshold

# Molecular target: T4, DLG3_2, Q92796
# T4 sequence (Q92796 221-321, limits assumed, looked up): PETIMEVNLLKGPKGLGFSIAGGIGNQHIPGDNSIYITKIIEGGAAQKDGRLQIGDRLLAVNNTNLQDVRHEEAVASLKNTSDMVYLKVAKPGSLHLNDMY
# Experiment: holdup assay
# Set-up: key: below the threshold = too weak to quantify, mostly under pKd 3.1 to 4
# Conditions: plain residues with an end cap or a label only (N-terminal biotin on a linker: ado-ado)
row,Binder,pKd
1,"AAVENKVTDL [PLXNB1, O43157]",3.72
2,"PYPTADHMLA [JUP, P14923]",4.05

# Molecular target: T5, SIPA1L2, Q9P2F8
# T5 sequence (Q9P2F8 945-1036, limits assumed, looked up): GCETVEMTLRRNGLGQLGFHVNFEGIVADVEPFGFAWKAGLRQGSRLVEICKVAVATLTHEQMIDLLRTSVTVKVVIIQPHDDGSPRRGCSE
# Experiment: holdup assay
# Set-up: key: below the threshold = too weak to quantify, mostly under pKd 3.1 to 4
# Conditions: plain residues with an end cap or a label only (N-terminal biotin on a linker: ado-ado)
row,Binder,pKd
1,"AAVENKVTDL [PLXNB1, O43157]",below the threshold
2,"PYPTADHMLA [JUP, P14923]",below the threshold

# Molecular target: T6, RAPGEF6, Q8TEU7
# T6 sequence (Q8TEU7 525-625, limits assumed, looked up): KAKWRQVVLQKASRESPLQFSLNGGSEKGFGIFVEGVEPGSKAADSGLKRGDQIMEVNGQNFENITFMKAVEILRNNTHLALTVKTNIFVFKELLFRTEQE
# Experiment: holdup assay
# Set-up: key: below the threshold = too weak to quantify, mostly under pKd 3.1 to 4
# Conditions: plain residues with an end cap or a label only (N-terminal biotin on a linker: ado-ado)
row,Binder,pKd
1,"AAVENKVTDL [PLXNB1, O43157]",below the threshold
2,"PYPTADHMLA [JUP, P14923]",below the threshold

# Molecular target: LDB3, O75112
# Experiment: holdup assay
# Set-up: key: below the threshold = too weak to quantify, mostly under pKd 3.1 to 4
# Conditions: plain residues with an end cap or a label only (N-terminal biotin on a linker: ado-ado)
# Sequence of LDB3, O75112 (O75112 1-94): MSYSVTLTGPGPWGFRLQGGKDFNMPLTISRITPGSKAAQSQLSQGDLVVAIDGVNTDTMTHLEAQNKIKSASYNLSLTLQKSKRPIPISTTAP
row,Binder,pKd
1,"AAVENKVTDL [PLXNB1, O43157]",below the threshold
2,"PYPTADHMLA [JUP, P14923]",below the threshold

# Molecular target: T7, DLG3_1, Q92796
# T7 sequence (Q92796 125-227, limits assumed, looked up): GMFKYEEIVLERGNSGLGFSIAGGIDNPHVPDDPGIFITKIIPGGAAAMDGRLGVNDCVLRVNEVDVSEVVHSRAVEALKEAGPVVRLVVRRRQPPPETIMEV
# Experiment: holdup assay
# Set-up: key: below the threshold = too weak to quantify, mostly under pKd 3.1 to 4
# Conditions: plain residues with an end cap or a label only (N-terminal biotin on a linker: ado-ado)
row,Binder,pKd
1,"AAVENKVTDL [PLXNB1, O43157]",below the threshold
2,"PYPTADHMLA [JUP, P14923]",below the threshold

# Molecular target: T8, MPDZ_12, O75970
# T8 sequence (O75970 1857-1958, limits assumed, looked up): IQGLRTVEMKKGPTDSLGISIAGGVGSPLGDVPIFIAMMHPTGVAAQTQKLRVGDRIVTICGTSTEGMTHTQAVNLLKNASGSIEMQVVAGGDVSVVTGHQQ
# Experiment: holdup assay
# Set-up: key: below the threshold = too weak to quantify, mostly under pKd 3.1 to 4
# Conditions: plain residues with an end cap or a label only (N-terminal biotin on a linker: ado-ado)
row,Binder,pKd
1,"AAVENKVTDL [PLXNB1, O43157]",below the threshold
2,"PYPTADHMLA [JUP, P14923]",below the threshold

# Molecular target: T9, LIN7B, Q9HAP6
# T9 sequence (Q9HAP6 88-185, limits assumed, looked up): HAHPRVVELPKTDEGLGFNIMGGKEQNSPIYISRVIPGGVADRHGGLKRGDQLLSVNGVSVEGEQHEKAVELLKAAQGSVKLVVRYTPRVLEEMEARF
# Experiment: holdup assay
# Set-up: key: below the threshold = too weak to quantify, mostly under pKd 3.1 to 4
# Conditions: plain residues with an end cap or a label only (N-terminal biotin on a linker: ado-ado)
row,Binder,pKd
1,"AAVENKVTDL [PLXNB1, O43157]",below the threshold
2,"PYPTADHMLA [JUP, P14923]",3.6

# Molecular target: FRMPD2_3, Q68DX3
# Experiment: holdup assay
# Set-up: key: below the threshold = too weak to quantify, mostly under pKd 3.1 to 4
# Conditions: plain residues with an end cap or a label only (N-terminal biotin on a linker: ado-ado)
# Sequence of FRMPD2_3, Q68DX3 (Q68DX3 1073-1166): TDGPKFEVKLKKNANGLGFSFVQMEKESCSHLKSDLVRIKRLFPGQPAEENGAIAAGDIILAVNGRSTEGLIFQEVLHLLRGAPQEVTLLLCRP
row,Binder,pKd
1,"AAVENKVTDL [PLXNB1, O43157]",below the threshold
2,"PYPTADHMLA [JUP, P14923]",below the threshold

# Molecular target: T10, MPDZ_5, O75970
# T10 sequence (O75970 695-796, limits assumed, looked up): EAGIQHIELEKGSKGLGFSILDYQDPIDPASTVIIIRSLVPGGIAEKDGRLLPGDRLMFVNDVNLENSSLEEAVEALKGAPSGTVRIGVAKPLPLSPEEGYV
# Experiment: holdup assay
# Set-up: key: below the threshold = too weak to quantify, mostly under pKd 3.1 to 4
# Conditions: plain residues with an end cap or a label only (N-terminal biotin on a linker: ado-ado)
row,Binder,pKd
1,"AAVENKVTDL [PLXNB1, O43157]",below the threshold
2,"PYPTADHMLA [JUP, P14923]",below the threshold

# Molecular target: GRID2IP_1, A4D2P6
# Experiment: holdup assay
# Set-up: key: below the threshold = too weak to quantify, mostly under pKd 3.1 to 4
# Conditions: plain residues with an end cap or a label only (N-terminal biotin on a linker: ado-ado)
# Sequence of GRID2IP_1, A4D2P6 (A4D2P6 1-87): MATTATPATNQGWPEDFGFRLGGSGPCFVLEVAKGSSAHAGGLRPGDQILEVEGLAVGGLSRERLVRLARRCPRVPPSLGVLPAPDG
row,Binder,pKd
1,"AAVENKVTDL [PLXNB1, O43157]",below the threshold
2,"PYPTADHMLA [JUP, P14923]",below the threshold

# Molecular target: TJP1_3, Q07157
# Experiment: holdup assay
# Set-up: key: below the threshold = too weak to quantify, mostly under pKd 3.1 to 4
# Conditions: plain residues with an end cap or a label only (N-terminal biotin on a linker: ado-ado)
# Sequence of TJP1_3, Q07157 (Q07157 416-512): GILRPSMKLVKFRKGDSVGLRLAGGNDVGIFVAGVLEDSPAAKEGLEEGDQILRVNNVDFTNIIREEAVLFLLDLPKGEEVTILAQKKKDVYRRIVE
row,Binder,pKd
1,"AAVENKVTDL [PLXNB1, O43157]",below the threshold
2,"PYPTADHMLA [JUP, P14923]",below the threshold

# Molecular target: T11, PDZRN3_1, Q9UPQ7
# T11 sequence (Q9UPQ7 244-349, limits assumed, looked up): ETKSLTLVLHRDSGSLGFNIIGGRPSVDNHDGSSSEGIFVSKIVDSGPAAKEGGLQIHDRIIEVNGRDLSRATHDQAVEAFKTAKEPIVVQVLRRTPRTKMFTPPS
# Experiment: holdup assay
# Set-up: key: below the threshold = too weak to quantify, mostly under pKd 3.1 to 4
# Conditions: plain residues with an end cap or a label only (N-terminal biotin on a linker: ado-ado)
row,Binder,pKd
1,"AAVENKVTDL [PLXNB1, O43157]",below the threshold
2,"PYPTADHMLA [JUP, P14923]",below the threshold

# Molecular target: SCRIB_1, Q14160
# Experiment: holdup assay
# Set-up: key: below the threshold = too weak to quantify, mostly under pKd 3.1 to 4
# Conditions: plain residues with an end cap or a label only (N-terminal biotin on a linker: ado-ado)
# Sequence of SCRIB_1, Q14160 (Q14160 718-814): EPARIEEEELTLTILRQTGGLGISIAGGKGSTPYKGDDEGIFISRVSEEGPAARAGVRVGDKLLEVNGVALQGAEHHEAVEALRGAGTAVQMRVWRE
row,Binder,pKd
1,"AAVENKVTDL [PLXNB1, O43157]",4.62
2,"PYPTADHMLA [JUP, P14923]",below the threshold

# Molecular target: Inadl_5, Q8NI35
# Experiment: holdup assay
# Set-up: key: below the threshold = too weak to quantify, mostly under pKd 3.1 to 4
# Conditions: plain residues with an end cap or a label only (N-terminal biotin on a linker: ado-ado)
# Sequence of Inadl_5, Q8NI35 (Q8NI35 673-780): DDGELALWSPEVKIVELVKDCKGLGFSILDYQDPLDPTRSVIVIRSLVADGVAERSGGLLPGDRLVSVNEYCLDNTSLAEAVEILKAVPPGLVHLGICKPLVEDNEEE
row,Binder,pKd
1,"AAVENKVTDL [PLXNB1, O43157]",below the threshold
2,"PYPTADHMLA [JUP, P14923]",below the threshold

# Molecular target: T12, MPDZ_10, O75970
# T12 sequence (O75970 1624-1722, limits assumed, looked up): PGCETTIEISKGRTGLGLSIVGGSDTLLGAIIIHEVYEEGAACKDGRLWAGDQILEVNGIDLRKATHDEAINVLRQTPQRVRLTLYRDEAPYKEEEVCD
# Experiment: holdup assay
# Set-up: key: below the threshold = too weak to quantify, mostly under pKd 3.1 to 4
# Conditions: plain residues with an end cap or a label only (N-terminal biotin on a linker: ado-ado)
row,Binder,pKd
1,"AAVENKVTDL [PLXNB1, O43157]",below the threshold
2,"PYPTADHMLA [JUP, P14923]",below the threshold
